In experiment [1] the target is P. falciparum translation enhancing factor C-terminal domain (PTEF-CTD) (P. falciparum). As to the kind of experiment: BLI; biotinylated protein ([…] load) immobilised on High Precision Streptavidin (SAX) tips, E. coli 70S ribosome as analyte; Octet RED96e, 30 °C, 1,000 rpm; ribosome buffer 20 mM Tris HCl pH 7.5, 60 mM NH4Cl, 7.5 mM Mg(CH3COO)2, 0.5 mM EDTA, 6 mM βME with 0.1% BSA and 0.02% Tween-20; IF2 pre-incubated with GDPNP; Kd from the fit of equilibrium responses, double-referenced.

For experiment [2], the target named is E. coli initiation factor 2 (IF2) (E. coli) (UniProt P0A705). The experiment is described as above.

Where “and” joins values, the source holds several entries; their conditions need not be identical. Equal values may be shown once.

Kd data for one substance are collected here from publication PMC11325027.

As a reminder, the Kd is the concentration at which binding is half-saturated.

In the case of E. coli 70S ribosome (complex), the Kd in experiment [1] is 426 nM and 313 nM and 515 nM; in experiment [2], 9.3 nM and 2.7 nM and 1.5 nM.
